Laboratory results published in patent US20250295737A1 (AstraZeneca / MedImmune, published 2025).
Read-outs that look alike come from different tables or passages of the source. Blank lines part the entries; values can stand above or below the binder they belong to.

Legend:
Assay in all cases: cell-based or functional assay
human RXFP1 [1] = target: T1, human RXFP1 (human, UniProt Q9HBX9 1-757)
T1 sequence (looked up): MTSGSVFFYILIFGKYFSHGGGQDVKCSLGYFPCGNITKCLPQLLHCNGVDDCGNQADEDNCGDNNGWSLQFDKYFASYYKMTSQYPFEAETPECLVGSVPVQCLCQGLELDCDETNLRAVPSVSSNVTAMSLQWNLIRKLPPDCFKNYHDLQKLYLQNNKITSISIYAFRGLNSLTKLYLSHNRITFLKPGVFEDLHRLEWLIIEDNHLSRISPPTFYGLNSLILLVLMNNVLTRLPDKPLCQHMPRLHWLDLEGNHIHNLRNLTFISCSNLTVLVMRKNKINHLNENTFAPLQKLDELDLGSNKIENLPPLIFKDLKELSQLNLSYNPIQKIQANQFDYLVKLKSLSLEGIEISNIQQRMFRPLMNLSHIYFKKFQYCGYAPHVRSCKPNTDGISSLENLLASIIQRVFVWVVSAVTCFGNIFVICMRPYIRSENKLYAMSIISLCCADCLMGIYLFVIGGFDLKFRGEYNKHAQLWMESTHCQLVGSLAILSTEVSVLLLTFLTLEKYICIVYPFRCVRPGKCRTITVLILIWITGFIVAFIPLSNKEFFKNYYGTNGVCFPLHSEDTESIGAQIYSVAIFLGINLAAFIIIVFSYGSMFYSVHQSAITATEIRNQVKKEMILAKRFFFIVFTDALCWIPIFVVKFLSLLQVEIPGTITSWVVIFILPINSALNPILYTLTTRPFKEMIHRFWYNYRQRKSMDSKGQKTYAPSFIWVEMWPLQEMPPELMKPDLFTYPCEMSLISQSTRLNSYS

human RXFP2 [2] = target: T2, human RXFP2 (human, UniProt Q8WXD0 1-754)
T2 sequence (Q8WXD0 whole entry): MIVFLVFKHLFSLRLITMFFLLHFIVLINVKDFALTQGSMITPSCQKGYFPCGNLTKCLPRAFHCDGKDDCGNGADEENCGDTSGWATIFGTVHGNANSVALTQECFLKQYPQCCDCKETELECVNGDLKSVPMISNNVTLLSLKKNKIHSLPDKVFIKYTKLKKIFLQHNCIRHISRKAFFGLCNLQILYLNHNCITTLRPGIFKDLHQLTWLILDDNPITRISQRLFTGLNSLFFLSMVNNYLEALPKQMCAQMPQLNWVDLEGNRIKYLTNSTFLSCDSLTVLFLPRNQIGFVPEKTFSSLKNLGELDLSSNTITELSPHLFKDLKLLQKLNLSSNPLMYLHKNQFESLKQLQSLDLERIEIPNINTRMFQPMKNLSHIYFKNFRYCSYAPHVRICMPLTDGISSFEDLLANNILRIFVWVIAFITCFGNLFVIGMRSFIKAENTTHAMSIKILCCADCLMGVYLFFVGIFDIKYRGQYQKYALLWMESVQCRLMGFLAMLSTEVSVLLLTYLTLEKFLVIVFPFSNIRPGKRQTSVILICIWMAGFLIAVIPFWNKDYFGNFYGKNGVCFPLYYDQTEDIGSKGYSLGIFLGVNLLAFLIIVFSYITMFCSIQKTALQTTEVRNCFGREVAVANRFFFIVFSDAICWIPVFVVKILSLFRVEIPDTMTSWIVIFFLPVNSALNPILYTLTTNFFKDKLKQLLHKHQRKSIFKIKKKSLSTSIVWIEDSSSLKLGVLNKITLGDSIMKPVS

mouse RXFP1 [3] = target: T3, mouse RXFP1 (mouse, UniProt Q6R6I7 1-758)
T3 sequence (looked up): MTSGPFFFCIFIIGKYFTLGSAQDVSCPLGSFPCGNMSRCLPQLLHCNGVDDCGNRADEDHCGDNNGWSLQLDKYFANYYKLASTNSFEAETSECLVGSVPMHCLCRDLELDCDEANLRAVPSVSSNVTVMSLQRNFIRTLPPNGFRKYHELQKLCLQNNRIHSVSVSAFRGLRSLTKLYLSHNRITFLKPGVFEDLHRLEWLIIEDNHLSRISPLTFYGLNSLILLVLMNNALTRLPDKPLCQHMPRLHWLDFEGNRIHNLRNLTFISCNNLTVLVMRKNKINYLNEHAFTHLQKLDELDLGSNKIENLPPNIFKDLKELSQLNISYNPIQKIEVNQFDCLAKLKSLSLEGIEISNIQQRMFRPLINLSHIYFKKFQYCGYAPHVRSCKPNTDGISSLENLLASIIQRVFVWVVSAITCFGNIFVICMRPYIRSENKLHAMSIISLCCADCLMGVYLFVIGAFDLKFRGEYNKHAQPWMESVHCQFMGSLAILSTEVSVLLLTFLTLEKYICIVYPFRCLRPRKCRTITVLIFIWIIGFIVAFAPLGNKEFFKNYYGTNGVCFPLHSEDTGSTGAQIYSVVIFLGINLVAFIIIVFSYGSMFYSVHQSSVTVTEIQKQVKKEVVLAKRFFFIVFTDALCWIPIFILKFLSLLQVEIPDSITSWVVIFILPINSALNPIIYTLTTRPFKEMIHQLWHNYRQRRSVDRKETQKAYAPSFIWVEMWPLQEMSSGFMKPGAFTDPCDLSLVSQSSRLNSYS

human RXFP1 [4] = target: T1, human RXFP1; remark: listed apart in the source
human RXFP2 [5] = target: T2, human RXFP2; remark: listed apart in the source
mouse RXFP1 [6] = target: T3, mouse RXFP1; remark: listed apart in the source
human RXFP1 [7] = target: T1, human RXFP1; remark: listed apart in the source
human RXFP2 [8] = target: T2, human RXFP2; remark: listed apart in the source
mouse RXFP1 [9] = target: T3, mouse RXFP1; remark: listed apart in the source

B2: RELAX0023 (Fc fusion)
chain 1: DKTHTCPPCPAPEFEGGPSVFLFPPKPKDTLMISRTPEVTCVVVDVSHEDPEVKFNWYVDGVEVHNAKTKPREEQYNSTYRVVSVLTVLHQDWLNGKEYKCKVSNKALPASIEKTISKAKGQPREPQVYTLPPCREEMTKNQVSLWCLVKGFYPSDIAVEWESNGQPENNYKTTPPVLDSDGSFFLYSKLTVDKSRWQQGNVFSCSVMHEALHNHYTQKSLSLSPGGGGGSGGGGSGGGGSGGGGGSQLYSALANKCCHVGCTKRSLARFC
chain 2: DKTHTCPPCPAPEFEGGPSVFLFPPKPKDTLMISRTPEVTCVVVDVSHEDPEVKFNWYVDGVEVHNAKTKPREEQYNSTYRVVSVLTVLHQDWLNGKEYKCKVSNKALPASIEKTISKAKGQPREPQVCTLPPSREEMTKNQVSLSCAVKGFYPSDIAVEWESNGQPENNYKTTPPVLDSDGSFFLVSKLTVDKSRWQQGNVFSCSVMHEALHNHYTQKSLSLSPGGGGGSGGGGSGGGGSGGGGGSSWMEEVIKLCGRELVRAQIAICGMSTWS
EC50 hRXFP1 (M), cAMP HTRF assay (human RXFP1 [4]): 3.77e-11 M
EC50 hRXFP2 (M), cAMP HTRF assay (human RXFP2 [5]): 3.24e-08 M
EC50 mRXFP1 (M), cAMP HTRF assay (mouse RXFP1 [6]): 3.27e-11 M
EC50 hRXFP1 (M), cAMP HTRF assay (human RXFP1 [7]): 3.32e-11 M
EC50 hRXFP2 (M), cAMP HTRF assay (human RXFP2 [8]): 4.2e-08 M
EC50 mRXFP1 (M), cAMP HTRF assay (mouse RXFP1 [9]): 1.36e-11 M

B4: RELAX0117 (Fc fusion)
chain 1: QLYSALANKCCHVGCTKRSLARFCAAAGGGGSGGGGSGGGGSGGGGSACPPCPAPEFEGGPSVFLFPPKPKDTLMISRTPEVTCVVVDVSHEDPEVKFNWYVDGVEVHNAKTKPREEQYNSTYRVVSVLTVLHQDWLNGKEYKCKVSNKALPASIEKTISKAKGQPREPQVYTLPPCREEMTKNQVSLWCLVKGFYPSDIAVEWESNGQPENNYKTTPPVLDSDGSFFLYSKLTVDKSRWQQGNVFSCSVMHEALHNHYTQKSLSLSPGGGGGSGGGGSGGGGSGGGGGSQLYSALANKCCHVGCTKRSLARFC
chain 2: SWMEEVIKLCGRELVRAQIAICGMSTWSAAAGGGGSGGGGSGGGGSGGGGSACPPCPAPEFEGGPSVFLFPPKPKDTLMISRTPEVTCVVVDVSHEDPEVKFNWYVDGVEVHNAKTKPREEQYNSTYRVVSVLTVLHQDWLNGKEYKCKVSNKALPASIEKTISKAKGQPREPQVCTLPPSREEMTKNQVSLSCAVKGFYPSDIAVEWESNGQPENNYKTTPPVLDSDGSFFLVSKLTVDKSRWQQGNVFSCSVMHEALHNHYTQKSLSLSPGGGGGSGGGGSGGGGSGGGGGSSWMEEVIKLCGRELVRAQIAICGMSTWS
EC50 hRXFP1 (M), cAMP HTRF assay (human RXFP1 [4]): 1.06e-11 M
EC50 hRXFP2 (M), cAMP HTRF assay (human RXFP2 [5]): 1.61e-08 M
EC50 mRXFP1 (M), cAMP HTRF assay (mouse RXFP1 [6]): 1.74e-11 M

B5: RELAX0013 (ligand)
chain 1: DSWMEEVIKLCGRELVRAQIAICGMSTWS
chain 2: QLYSALANKCCHVGCTKRSLARFC
EC50 hRXFP1 (M), cAMP HTRF assay (human RXFP1 [1]): 1.15e-12 M
EC50 hRXFP2 (M), cAMP HTRF assay (human RXFP2 [2]): 1.75e-09 M
EC50 mRXFP1 (M), cAMP HTRF assay (mouse RXFP1 [3]): 7.54e-13 M
EC50 hRXFP1 (M), cAMP HTRF assay (human RXFP1 [4]): 1.15e-12 M
EC50 hRXFP2 (M), cAMP HTRF assay (human RXFP2 [5]): 1.75e-09 M
EC50 mRXFP1 (M), cAMP HTRF assay (mouse RXFP1 [6]): 7.54e-13 M
EC50 hRXFP1 (M), cAMP HTRF assay (human RXFP1 [7]): 1.15e-12 M
EC50 hRXFP2 (M), cAMP HTRF assay (human RXFP2 [8]): 1.75e-09 M
EC50 mRXFP1 (M), cAMP HTRF assay (mouse RXFP1 [9]): 7.54e-13 M

The next lines start with the values.

EC50 hRXFP1 (M), cAMP HTRF assay (human RXFP1 [1]): 5.81e-11 M
EC50 hRXFP2 (M), cAMP HTRF assay (human RXFP2 [2]): 4.4e-08 M
EC50 mRXFP1 (M), cAMP HTRF assay (mouse RXFP1 [3]): 2.24e-11 M
EC50 hRXFP1 (M), cAMP HTRF assay (human RXFP1 [4]): 3.57e-11 M
EC50 hRXFP2 (M), cAMP HTRF assay (human RXFP2 [5]): 3.42e-08 M
EC50 mRXFP1 (M), cAMP HTRF assay (mouse RXFP1 [6]): 9.1e-12 M
EC50 hRXFP1 (M), cAMP HTRF assay (human RXFP1 [7]): 5.81e-11 M
EC50 hRXFP2 (M), cAMP HTRF assay (human RXFP2 [8]): 4.4e-08 M
EC50 mRXFP1 (M), cAMP HTRF assay (mouse RXFP1 [9]): 2.24e-11 M
B1: RELAX0019 (Fc fusion)
chain 1: GGAGGACPPCPAPEFEGGPSVFLFPPKPKDTLMISRTPEVTCVVVDVSHEDPEVKFNWYVDGVEVHNAKTKPREEQYNSTYRVVSVLTVLHQDWLNGKEYKCKVSNKALPASIEKTISKAKGQPREPQVYTLPPCREEMTKNQVSLWCLVKGFYPSDIAVEWESNGQPENNYKTTPPVLDSDGSFFLYSKLTVDKSRWQQGNVFSCSVMHEALHNHYTQKSLSLSPGGGGGSGGGGSGGGGSGGGGGSQLYSALANKCCHVGCTKRSLARFC
chain 2: GGAGGACPPCPAPEFEGGPSVFLFPPKPKDTLMISRTPEVTCVVVDVSHEDPEVKFNWYVDGVEVHNAKTKPREEQYNSTYRVVSVLTVLHQDWLNGKEYKCKVSNKALPASIEKTISKAKGQPREPQVCTLPPSREEMTKNQVSLSCAVKGFYPSDIAVEWESNGQPENNYKTTPPVLDSDGSFFLVSKLTVDKSRWQQGNVFSCSVMHEALHNHYTQKSLSLSPGGGGGSGGGGSGGGGSGGGGGSSWMEEVIKLCGRELVRAQIAICGMSTWS

EC50 hRXFP1 (M), cAMP HTRF assay (human RXFP1 [1]): 4.47e-12 M
EC50 hRXFP2 (M), cAMP HTRF assay (human RXFP2 [2]): 1.78e-12 M
EC50 mRXFP1 (M), cAMP HTRF assay (mouse RXFP1 [3]): 2.37e-12 M
EC50 hRXFP1 (M), cAMP HTRF assay (human RXFP1 [4]): 4.47e-12 M
EC50 hRXFP2 (M), cAMP HTRF assay (human RXFP2 [5]): 1.78e-12 M
EC50 mRXFP1 (M), cAMP HTRF assay (mouse RXFP1 [6]): 2.37e-12 M
EC50 hRXFP1 (M), cAMP HTRF assay (human RXFP1 [7]): 4.47e-12 M
EC50 hRXFP2 (M), cAMP HTRF assay (human RXFP2 [8]): 1.78e-12 M
EC50 mRXFP1 (M), cAMP HTRF assay (mouse RXFP1 [9]): 2.37e-12 M
B3: RELAX0014 (ligand)
chain 1: MRVSEEWMDGFIRMCGREYARELIKICGASVGR
chain 2: ESGGLMSQQCCHVGCSRRSIAKLYC
